Measured values as given in PMC4072576.

Target: FLAG-ctxIII coexpressed in E. coli with His-ctxI or His-ctxII (Dictyostelium discoideum)
Experiment: AUC

His-ctxII (recombinant N-terminal His-tagged cortexillin II), sequence (Q550R2 whole entry): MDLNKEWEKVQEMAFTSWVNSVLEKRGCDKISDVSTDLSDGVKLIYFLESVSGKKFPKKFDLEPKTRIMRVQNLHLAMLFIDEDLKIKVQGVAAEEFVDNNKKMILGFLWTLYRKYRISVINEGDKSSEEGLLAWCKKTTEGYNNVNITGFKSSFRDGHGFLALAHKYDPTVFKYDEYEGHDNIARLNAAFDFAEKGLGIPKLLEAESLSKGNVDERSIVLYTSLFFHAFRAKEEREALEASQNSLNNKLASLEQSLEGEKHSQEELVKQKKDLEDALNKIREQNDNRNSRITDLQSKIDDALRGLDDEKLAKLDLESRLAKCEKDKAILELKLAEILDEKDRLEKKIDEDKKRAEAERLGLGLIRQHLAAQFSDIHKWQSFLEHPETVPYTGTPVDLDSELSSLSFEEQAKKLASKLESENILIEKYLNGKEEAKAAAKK
His-ctxI (recombinant N-terminal His-tagged cortexillin I), sequence (Q54HG2 whole entry): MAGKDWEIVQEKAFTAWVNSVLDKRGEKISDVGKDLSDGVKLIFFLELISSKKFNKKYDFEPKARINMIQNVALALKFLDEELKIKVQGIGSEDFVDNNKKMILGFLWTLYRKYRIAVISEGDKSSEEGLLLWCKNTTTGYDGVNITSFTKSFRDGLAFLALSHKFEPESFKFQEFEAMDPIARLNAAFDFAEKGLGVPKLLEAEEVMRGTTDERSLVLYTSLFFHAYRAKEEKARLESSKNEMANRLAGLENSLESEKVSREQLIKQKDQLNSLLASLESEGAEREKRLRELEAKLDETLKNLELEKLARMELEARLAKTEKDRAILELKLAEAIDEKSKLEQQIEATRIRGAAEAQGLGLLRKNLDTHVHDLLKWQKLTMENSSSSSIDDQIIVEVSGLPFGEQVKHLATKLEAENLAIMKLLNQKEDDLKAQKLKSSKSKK

| Substance | major peak (heterodimer), percent of total protein [%] |
| --- | --- |
| His-ctxII (recombinant N-terminal His-tagged cortexillin II) (from UniProt Q550R2 1-441) (natural protein) | 70 |
| His-ctxI (recombinant N-terminal His-tagged cortexillin I) (from UniProt Q54HG2 1-444) (natural protein) | 60 |
